Source: patent US20100311696A1, “TOPICAL SKIN TREATMENT COMPOSITION” (priority 2002, published 2010)

Experiments:
[1] = RP-HPLC and HPCE stability analyses of insulin standards and insulin compositions, Example 1; format: physicochemical; conditions: stored at room temperature
Experimental: This mixture was then divided in half, half of which was stored at 4° C., and the other half stored at room temperature.

[2] = RP-HPLC and HPCE stability analyses of insulin standards and stable insulin compositions, Example 2; format: physicochemical; conditions: stored at room temperature
[3] = Dispersion and stability of somatotropin in phosphatidylcholine; format: physicochemical; conditions: 85% phosphatidylcholine with lipoic acid and ascorbyl palmitate
Experimental: (§1) A drug delivery composition formulated with somatotropin was formulated in one trial with 85% phosphatidylcholine to which lipoic acid and ascorbyl palmitate were added.

[4] = Skin penetration after topical application of the somatotropin composition; format: in vivo; conditions: composition topically applied
Experimental: as §1

Substance | time at which denaturing started (RP-HPLC and HPCE) [1] | time at which denaturing started (RP-HPLC and HPCE) [2] | dispersion in phosphatidylcholine [3] | stability in phosphatidylcholine [3] | skin penetration [4]
insulin standards: Insulin in 0.01 N HCl: 1 mg/ml Sigma insulin (Example 1), 5 mg/ml (Example 2) | ≤ 7 days | ≤ 1 week | – | – | –
Somatotropin: Somatotropin (pituitary growth hormone) formulated with 85% phosphatidylcholine, lipoic acid and ascorbyl palmitate | – | – | readily dispersed | remained stable | penetrate the skin well
